This is an account of results in patent US20090208473A1 (RUTGERS THE STATE UNIVERSITY OF NEW JERSEY, published 2009).

Series [1] concerns the molecule itself. Kind of series: oligomerization; Western blot without DTT of GFP-MG53 mutants from C2C12 cells. An excerpt:
These mutant constructs were transiently expressed in C2C12 myoblast cells (FIG. 22).
Background: In western blotting, separated proteins are transferred to a membrane and probed.

In the case of “MBP-MG53 (recombinant maltose-binding protein fusion protein for MG53)”, the “auto-ubiquitination in vitro (high molecular-mass ladders, anti-MBP immunoblot)” value in the series with UbCH5 and in the series on Ubc4 was “High molecular-mass ladders derived from ubiquitination were observed when MBP-MG53 was incubated with Ubc4 or UbCH5 as E2” each time.

B1: GFP-MG53 C242A mutant (other, mouse, UniProt Q1XH17 1-477, looked up)
chain: MSAAPGLLRQELSCPLCLQLFDAPVTAECGHSFCRACLIRVAGEPAADGTVACPCCQAPTRPQALSTNLQLSRLVEGLAQVPQGHCEEHLDPLSIYCEQDRTLVCGVCASLGSHRGHRLLPAAEAQARLKTQLPQQKMQLQEACMRKEKTVAVLEHQLVEVEETVRQFRGAVGEQLGKMRMFLAALESSLDREAERVRGDAGVALRRELSSLNSYLEQLRQMEKVLEEVADKPQTEFLMKFALVTSRLQKILSESPPPARLDIQLPVISDDFKFQVWKKMFRALMPALEELTFDPSSAHPSLVVSSSGRRVECSDQKAPPAGEDTRQFDKAVAVVAQQLLSQGEHYWEVEVGDKPRWALGVMAADASRRGRLHAVPSQGLWLLGLRDGKILEAHVEAKEPRALRTPERPPARIGLYLSFADGVLAFYDASNPDVLTPIFSFHERLPGPVYPIFDVCWHDKGKNAQPLLLVGPEQEQA
notes: the plasmid methods describe mouse MG53 cDNA; also called GFP-C242A; not shown: GFP at the N-terminus
As to B1, in series [1], the binding result is reported as “no binding”.
